Results on 61 sequences are retold here after the supplement of paper PMC11780869.

The test system of this data set is Bacillus subtilis. Nature of the data set: cleaved RNA product abundance (RNA/gDNA barcode ratio) relative to median wild-type variant (ratio to wild type); higher = more accumulation of the downstream cleavage product. Particulars: experiment (reporter, strain, medium): exp 8a: truncated aprE reporter, strain BJT201 with 2% xylose (RNase J1 expressed); cleavage site: glnRA (positions -5 to +31 mutated). Put shortly: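 Oligos with a 9% error rate were used to build barcoded, mutagenized RNase Y cleavage-site windows within truncated aprE or tetM reporter mRNAs, which were integrated into the B. subtilis chromosome. Cultures were grown in LB at 37°C between OD600 0.0003 and 0.3. Cleaved RNA was gel-selected, reverse transcribed and barcode-sequenced, as were genomic DNA barcodes, and UMIs were collapsed. Cleaved product abundance is the scaled RNA:gDNA barcode ratio, with the median construct carrying the unmutated site as reference.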
For the sequence “CGACATGTCCCGCTTCTTTCATTAATTCGTTAGCAACTGTTTTGCTATATACATTTAGCTTTTAAGAGGAGGAAT”, the “cleaved RNA product abundance” value was 1.88.

Regarding “CGACATGTCCCGCTTCTTTCATTAATTCGTTAGCAACTGTTTTGCTATATACATTTATCTTTTAAGAGGAGGAAT”, the “cleaved RNA product abundance” value was 1.4.

“CGACATGTCCCGCTTCTTTCATTAATTCGTTAGCAACTGTTTTGCTATATACATTTGCCTTTTAAGAGGAGGAAT”: the “cleaved RNA product abundance” value was found to be 0.536.

Regarding “CGACATGTCCCGCTTCTTTCATTAATTCGTTAGCAACTGTTTTGCTATATATATTTACCTTTTAAGAGGAGGAAT”, the “cleaved RNA product abundance” value amounted to 1.55.

Consider “CGACATGTCCCGCTTCTTTCATTAATTCGTTAGCAACTGTTTTGCTATATTCATTTACCTTTTAAGAGGAGGAAT”, for which the “cleaved RNA product abundance” value came to 0.627.

For the sequence “CGACATGTCCCGCTTCTTTCATTAATTCGTTAGCAACTGTTTTGCTATCTACATTTACCTTTTAAGAGGAGGAAT”, the “cleaved RNA product abundance” value was determined as 0.0856.

In the case of “CGACATGTCCCGCTTCTTTCATTAATTCGTTAGCAACTGTTTTGCTATTTACATTTACCTTTTAAGAGGAGGAAT”, the “cleaved RNA product abundance” value was found to be 0.134.

Turning to “CGACATGTCCCGCTTCTTTCATTAATTCGTTAGCAACTGTTTTGTTATATACATTTACCTTTTAAGAGGAGGAAT”, the “cleaved RNA product abundance” value came to 0.602.

In the case of “CGACATGTCCCGCTTCTTTCATTAATTCGTTAGCAATTGTTTTGCTATATACATTTACCTTTTAAGAGGAGGAAT”, the “cleaved RNA product abundance” value was 1.67.

As to “CGACATGTCCCGCTTCTTTCATTAATTCGTTAGCACCTGTTTTGCTATATACATTTACCTTTTAAGAGGAGGAAT”, the “cleaved RNA product abundance” value came out at 0.658.

With “CGACATGTCCCGCTTCTTTCATTAATTCGTTAGTAACTGTTTTGCTATATACATTTACCTTTTAAGAGGAGGAAT”, the “cleaved RNA product abundance” value stood at 0.445.

“CGACATGTCCCGCTTCTTTCATTAATTCGTTATCAACTGTTTTGCTATATACATTTACCTTTTAAGAGGAGGAAT”: the “cleaved RNA product abundance” value stood at 0.31.

Consider “CGACATGTCCCGCTTCTTTCATTAATTCGTTGGCAACTGTTTTGCTATATACATTTACCTTTTAAGAGGAGGAAT”, for which the “cleaved RNA product abundance” value was found to be 0.687.

As to “CGACATGTCCCGCTTCTTTCATTAATTCGTTTGCAACTGTTTTGCTATATACATTTACCTTTTAAGAGGAGGAAT”, the “cleaved RNA product abundance” value stood at 0.815.

For the sequence “CGACATGTCCCGCTTCTTTCATTAATTTGTTAGCAACTGTTTTGCTATATACATTTACCTTTTAAGAGGAGGAAT”, the “cleaved RNA product abundance” value came to 1.37.

Take “CGACATGTCCCGCTTCTTTCATTACACCGTTAGCAACTGTTTTGCTATATACATTTACCTTTTAAGAGGAGGAAT”: the “cleaved RNA product abundance” value worked out at 1.39.

Turning to “CGACATGTCCCGCTTCTTTCATTACGCCGTTAGCAACTGTTTTGCTATATACATTTACCTTTTAAGAGGAGGAAT”, the “cleaved RNA product abundance” value amounted to 1.03.

Regarding “CGACATGTCCCGCTTCTTTCATTACTACCTTAGCAACTGTTTTGCTATATACATTTACCTTTTAAGAGGAGGAAT”, the “cleaved RNA product abundance” value was 0.4.

Take “CGACATGTCCCGCTTCTTTCATTACTACGTTAGCAACTGTTTTGCTATATACATTTACCTTTTAAGAGGAGGAAT”: the “cleaved RNA product abundance” value was 2.07.

For the sequence “CGACATGTCCCGCTTCTTTCATTACTACGTTAGCAACTGTTTTGCTATATATATTTACCTTTTAAGAGGAGGAAT”, the “cleaved RNA product abundance” value was 1.18.

“CGACATGTCCCGCTTCTTTCATTACTCAGTTAGCAACTGTTTTGCTATATACATTTACCTTTTAAGAGGAGGAAT”: the “cleaved RNA product abundance” value stood at 1.1.

In the case of “CGACATGTCCCGCTTCTTTCATTACTCCATTAGCAACTGTTTTGCTATATACATTTACCATTTAAGAGGAGGAAT”, the “cleaved RNA product abundance” value was 1.11.

In the case of “CGACATGTCCCGCTTCTTTCATTACTCCATTAGCAACTGTTTTGCTATATACATTTACCTTTTAAGAGGAGGAAT”, the “cleaved RNA product abundance” value was determined as 1.18.

In the case of “CGACATGTCCCGCTTCTTTCATTACTCCCCTAGCAACTGTTTGGCTATATATATTTACCTTTTAAGAGGAGGAAT”, the “cleaved RNA product abundance” value is 0.221.

Regarding “CGACATGTCCCGCTTCTTTCATTACTCCCTTAGCAACTGTTTTGCTATATACATTTACCTTTTAAGAGGAGGAAT”, the “cleaved RNA product abundance” value came out at 0.223.

With “CGACATGTCCCGCTTCTTTCATTACTCCGTCAGCAACTGTTTTGCTATATACATTTACCTTTTAAGAGGAGGAAT”, the “cleaved RNA product abundance” value was 0.381.

As for “CGACATGTCCCGCTTCTTTCATTACTCCGTTAACAACTGTTTTGCTATATACATTTACCTTTTAAGAGGAGGAAT”, the “cleaved RNA product abundance” value is 0.261.

Take “CGACATGTCCCGCTTCTTTCATTACTCCGTTACCAACTGTTTTGCTATATACATTTACCTTTTAAGAGGAGGAAT”: the “cleaved RNA product abundance” value is 0.176.

As for “CGACATGTCCCGCTTCTTTCATTACTCCGTTAGAAACTGTTTTGCTATATACATTTACCTTTTAAGAGGAGGAAT”, the “cleaved RNA product abundance” value turned out to be 0.478.

Take “CGACATGTCCCGCTTCTTTCATTACTCCGTTAGCAAATGTTTTGCTATATACATTTACCTTTTAAGAGGAGGAAT”: the “cleaved RNA product abundance” value amounted to 1.14.

As for “CGACATGTCCCGCTTCTTTCATTACTCCGTTAGCAACAGTTATGCTATATACATTTACCTTTTAAGAGGAGGAAT”, the “cleaved RNA product abundance” value was 0.735.

In the case of “CGACATGTCCCGCTTCTTTCATTACTCCGTTAGCAACAGTTTTGCTATATACATTTACCTTTTAAGAGGAGGAAT”, the “cleaved RNA product abundance” value is 0.834.

Consider “CGACATGTCCCGCTTCTTTCATTACTCCGTTAGCAACTATTTTGCTATATACATTTACCTTTTAAGAGGAGGAAT”, for which the “cleaved RNA product abundance” value came out at 1.31.

For the sequence “CGACATGTCCCGCTTCTTTCATTACTCCGTTAGCAACTCTTTTGCTATATACATTTACCTTTTAAGAGGAGGAAT”, the “cleaved RNA product abundance” value was 1.33.

“CGACATGTCCCGCTTCTTTCATTACTCCGTTAGCAACTGCTTTGCTATATACATTTACCTTTTAAGAGGAGGAAT”: the “cleaved RNA product abundance” value stood at 0.597.

In the case of “CGACATGTCCCGCTTCTTTCATTACTCCGTTAGCAACTGTATTGCTATATACATTTACCTTTTAAGAGGAGGAAT”, the “cleaved RNA product abundance” value worked out at 0.89.

Take “CGACATGTCCCGCTTCTTTCATTACTCCGTTAGCAACTGTCTTGCTATATACATTTACCTTTTAAGAGGAGGAAT”: the “cleaved RNA product abundance” value was 0.946.

With “CGACATGTCCCGCTTCTTTCATTACTCCGTTAGCAACTGTGTTGCTATATACATTTACCTTTTAAGAGGAGGAAT”, the “cleaved RNA product abundance” value is 0.327.

For “CGACATGTCCCGCTTCTTTCATTACTCCGTTAGCAACTGTTATGCTATATACATTTACCTTTTAAGAGGAGGAAT”, the “cleaved RNA product abundance” value was determined as 0.602.

For the sequence “CGACATGTCCCGCTTCTTTCATTACTCCGTTAGCAACTGTTTAGCTATATACATTTACCTTTTAAGAGGAGGAAT”, the “cleaved RNA product abundance” value turned out to be 0.694.

For “CGACATGTCCCGCTTCTTTCATTACTCCGTTAGCAACTGTTTGGCTATATACATTTACCTTTTAAGAGGAGGAAT”, the “cleaved RNA product abundance” value came to 0.644.

With “CGACATGTCCCGCTTCTTTCATTACTCCGTTAGCAACTGTTTTACTATATACATTTACCTTTTAAGAGGAGGAAT”, the “cleaved RNA product abundance” value stood at 0.792.

As to “CGACATGTCCCGCTTCTTTCATTACTCCGTTAGCAACTGTTTTCCTATATACATTTACCTTTTAAGAGGAGGAAT”, the “cleaved RNA product abundance” value was 0.679.

As for “CGACATGTCCCGCTTCTTTCATTACTCCGTTAGCAACTGTTTTGATATATACATTTACCTTTTAAGAGGAGGAAT”, the “cleaved RNA product abundance” value turned out to be 0.587.

Regarding “CGACATGTCCCGCTTCTTTCATTACTCCGTTAGCAACTGTTTTGCAATATACATTTACCTTTTAAGAGGAGGAAT”, the “cleaved RNA product abundance” value stood at 0.515.

As for “CGACATGTCCCGCTTCTTTCATTACTCCGTTAGCAACTGTTTTGCCATATACATTTACCTTTTAAGAGGAGGAAT”, the “cleaved RNA product abundance” value came out at 0.246.

Consider “CGACATGTCCCGCTTCTTTCATTACTCCGTTAGCAACTGTTTTGCGATATACATTTACCTTTTAAGAGGAGGAAT”, for which the “cleaved RNA product abundance” value was 0.388.

Take “CGACATGTCCCGCTTCTTTCATTACTCCGTTAGCAACTGTTTTGCTAAATACATTTACCTTTTAAGAGGAGGAAT”: the “cleaved RNA product abundance” value amounted to 1.11.

As for “CGACATGTCCCGCTTCTTTCATTACTCCGTTAGCAACTGTTTTGCTATAAACATTTACCTTTTAAGAGGAGGAAT”, the “cleaved RNA product abundance” value worked out at 0.608.

With “CGACATGTCCCGCTTCTTTCATTACTCCGTTAGCAACTGTTTTGCTATACACATTTACCTTTTAAGAGGAGGAAT”, the “cleaved RNA product abundance” value amounted to 0.423.

For the sequence “CGACATGTCCCGCTTCTTTCATTACTCCGTTAGCAACTGTTTTGCTATAGACATTTACCTTTTAAGAGGAGGAAT”, the “cleaved RNA product abundance” value was 0.738.

In the case of “CGACATGTCCCGCTTCTTTCATTACTCCGTTAGCAACTGTTTTGCTATATAAATTTACCTTTTAAGAGGAGGAAT”, the “cleaved RNA product abundance” value was 0.276.

“CGACATGTCCCGCTTCTTTCATTACTCCGTTAGCAACTGTTTTGCTATATACAATTACCTTTTAAGAGGAGGAAT”: the “cleaved RNA product abundance” value turned out to be 1.14.

In the case of “CGACATGTCCCGCTTCTTTCATTACTCCGTTAGCAACTGTTTTGCTATATACACTTACCTTTTAAGAGGAGGAAT”, the “cleaved RNA product abundance” value came out at 0.587.

For “CGACATGTCCCGCTTCTTTCATTACTCCGTTAGCAACTGTTTTGCTATATACATATACCTTTTAAGAGGAGGAAT”, the “cleaved RNA product abundance” value worked out at 0.767.

“CGACATGTCCCGCTTCTTTCATTACTCCGTTAGCAACTGTTTTGCTATATACATCTACCTTTTAAGAGGAGGAAT”: the “cleaved RNA product abundance” value amounted to 0.75.

On to “CGACATGTCCCGCTTCTTTCATTACTCCGTTAGCAACTGTTTTGCTATATACATTAACCTTTTAAGAGGAGGAAT”, for which the “cleaved RNA product abundance” value came to 1.36.

Take “CGACATGTCCCGCTTCTTTCATTACTCCGTTAGCAACTGTTTTGCTATATACATTCACCTTTTAAGAGGAGGAAT”: the “cleaved RNA product abundance” value stood at 0.658.

On to “CGACATGTCCCGCTTCTTTCATTACTCCGTTAGCAACTGTTTTGCTATATACATTGACCTTTTAAGAGGAGGAAT”, for which the “cleaved RNA product abundance” value came to 1.16.

On to “CGACATGTCCCGCTTCTTTCATTACTCCGTTAGCAACTGTTTTGCTATATACATTTACATTTTAAGAGGAGGAAT”, for which the “cleaved RNA product abundance” value is 1.39.

Consider “CGACATGTCCCGCTTCTTTCATTACTCCGTTAGCAACTGTTTTGCTATATACATTTACCATTTAAGAGGAGGAAT”, for which the “cleaved RNA product abundance” value was 1.3.
